PMC9721465, “PFK2/FBPase-2 is a potential target for metabolic engineering in the filamentous fungus Myceliophthora thermophila” (Frontiers in Microbiology, 2022)

Key:
[1] = substrate: O=P(O)(O)OC[C@H]1O[C@@](CO)(OP(=O)(O)O)[C@@H](O)[C@@H]1O; test: FBPase-2 assay, product/substrate by LC-MS/MS; format: biochemical, Thermothelomyces thermophilus; conditions: pH 7, 30 °C, 1 mM ATP, 2 mM MgCl2, 5 mM KPi
Text: FBPase-2 assay, product/substrate by LC-MS/MS on PFK2-A

[2] = substrate: Nc1ncnc2c1ncn2[C@@H]1O[C@H](COP(=O)(O)OP(=O)(O)OP(=O)(O)O)[C@@H](O)[C@H]1O; test: PFK2 assay, fru-2,6-P2 quantified by activation of potato PPi-PFK, spectrophotometric; format: biochemical, Thermothelomyces thermophilus; conditions: co-substrate F6P
Text: PFK2 assay, fru-2,6-P2 quantified by activation of potato PPi-PFK, spectrophotometric on PFK2-C

Row | Protein | Km [1] | Km [2]
1 | PFK2-A (Thermothelomyces thermophilus ATCC 42464) (protein, pET32a expression in E. coli Rosetta (DE3), His-Trap purified; cDNA-encoded) MAPKINGTGVMPEDTRICVVMVGLPARGKSYIAQRAQRYLKWLSIPAKTFNVGNYRRKDAPHPSADFFDTNNAEGERQRRAAANAAVTDMIQWFKTGGVVGILDATNSTKERRKWVLERLSKEGIEVLFVESKCDDEELIMANIRDVKTTSPDYQGQDPEQAALDFRERIRHYEKVYKSINDDNDEDHLTYLKIMNVGKKVFINRIQDYLQSRVVYFLMNLHIRPRSVWLSRHGESEYNLEGRIGGDSLLSHRGEEYARKLPELVRQSVGSDRPLTVWTSTLKRTIATARHLPKHYNQLQWKALDELDAGVCDGLTYQEIADQYPEDFQARDEDKYNYRYRGGESYRDVVIRLEPIIMELERSENILIISHQAVIRCIYAYFMQKPQEESPWVPVPLHTLIKLTPRAYDTLVEKYDAKIKAVSTWRGKGSTAKHEDPTPEGGI | 3810 ± 220 µM | –
2 | PFK2-C (Thermothelomyces thermophilus ATCC 42464) (protein, pET28a expression in E. coli (BL21/Rosetta DE3), His-Trap purified; cDNA-encoded) MPEPLQPSFFHVAASGSDPRPSESACQREDAAVAPQSSSLTLRKLAMSHRMGATASDPSSPTIQAIGDSHHGAETHPLHSVLPSPALTNALKESLRTAGAGQSGPPIGVPNGLHFDSPYSRSISSTAPGSPRIPPVRQNSGSHTPRIRPHATTLNIPGMTRSRASPDGRIPDRDVAAKLVIIMVGLPARGKSYITKKIQRYLSWQQHNTKIFNVGNRRRIAAGMVNPTDASPTNAANGHDVPSQAATILSKGTKGPDIVVEEPTALDLNKGKPVPKMDQSAAFFDPKNEAAAKLREQVALDTLDELLTYLLHQGGAVGILDATNSTIQRRKLLVERIKAREPKLGILFIESVCHDQNLLEANMRLKLFGPDYKDQDPHMALEDFKKRVAAYESAYEPLGKWEEDNDLQYIQMIDVGRKIIQHRLRGFLSGGIVSYLTTFNLSPRQIWITRHGQSEDNRAHRLGGDSELTERGHYYGQALYNFITYKRKEWLIQQKNKIASSNFPPQPGDNTPPYPELFQELDDKNFCVWTSMLKRSIETAEYFEADDDYDVKAWEMLNEMNAGAFEGMTYEEIAEKYPEEFEKRARDKLQYIYPGLGGEGYLQIISRLRDMVREIERITDHVLIIGHRSVCRVLMAYFMDLTRDDIADLDMPLGMLYAIEPKPYGIEFHAYKYNEETFWFDELPNYKPRKTVDRNS | – | 940 ± 150 µM
